Laboratory results reported in PMC4169312 (The FEBS journal, 2014).

Columns and labels:
Experiment in all cases: RP-HPLC product quantification, Michaelis-Menten fit
[1] = molecular target: sMAT (methionine adenosyltransferase from Sulfolobus solfataricus) (Saccharolobus solfataricus, UniProt Q980S9); type: biochemical; conditions: 65 °C, pH 8.0, 2.5 mM ATP, 5 mM MgCl2, 40 mM KCl
[2] = substrate: Nc1ncnc2c1ncn2[C@@H]1O[C@H](COP(=O)(O)OP(=O)(O)OP(=O)(O)O)[C@@H](O)[C@H]1O; type: biochemical, Saccharolobus solfataricus; conditions: 65 °C, pH 8.0, 2.5 mM L-methionine, 5 mM MgCl2, 40 mM KCl
[3] = substrate: CSCC[C@H](N)C(=O)O; type: biochemical, Saccharolobus solfataricus; conditions: 65 °C, pH 8.0, 2.5 mM ATP, 5 mM MgCl2, 40 mM KCl

**Q.** For `CCSCC[C@H](N)C(=O)O` [L-ethionine, (2S)-2-amino-4-(ethylsulfanyl)butanoic acid], which Km [1] is on record?
**A.** The Km was 7 ± 1.6 µM.

B1: sMAT (methionine adenosyltransferase from Sulfolobus solfataricus) (Saccharolobus solfataricus P2) (protein)
chain: MRNINVQLNPLSDIEKLQVELVERKGLGHPDYIADAVAEEASRKLSLYYLKKYGVILHHNLDKTLVVGGQATPRFKGGDIIQPIYIIVAGRATTEVKTESGIDQIPVGTIIIESVKEWIRNNFRYLDAERHVIVDYKIGKGSSDLVGIFEASKRVPLSNDTSFGVGFAPLTKLEKLVYETERHLNSKQFKAKLPEVGEDIKVMGLRRGNEVDLTIAMATISELIEDVNHYINVKEQVRNQILDLASKIAPGYNVRVYVNTGDKIDKNILYLTVTGTSAEHGDDGMTGRGNRGVGLITPMRPMSLEATAGKNPVNHVGKLYNVLANLIANKIAQEVKDVKFSQVQVLGQIGRPIDDPLIANVDVITYDGKLTDETKNEISGIVDEMLSSFNKLTELILEGKATLF
**Q.** With B1 as the molecule, how does the Km [2] read?
**A.** Its Km is 14.5 ± 2.5 µM.

**Q.** What about the kcat [2] of the same molecule?
**A.** The kcat was 0.0468 ± 0.00133 s⁻¹.

**Q.** What about the kcat/Km [2] of the same molecule?
**A.** The kcat/Km was 3230 ± 533 M⁻¹ s⁻¹.

**Q.** And the Km [3]?
**A.** The Km was 2.8 ± 0.7 µM.

**Q.** What about the kcat [3] of the same molecule?
**A.** The kcat was 0.0487 ± 0.00117 s⁻¹.

**Q.** What about the kcat/Km [3] of the same molecule?
**A.** The kcat/Km was 17400 ± 1670 M⁻¹ s⁻¹.
